The values that follow come from publication PMC10505172 (2023).

Where “and” joins values, the source holds several entries; their conditions need not be identical. Identical values can stand only once. Like-named read-outs stand apart in the source and are kept apart here.

Test [1] has as its target T1, HIS:SUMO:HD2 fusion protein (tick; entry name EVA4_RHISA, the …). The experiment in a line: BLI. On the technique in general: Biolayer interferometry detects binding as a change in optical thickness at a sensor tip.
The target in test [2] is T1, HIS:SUMO:HD2 fusion protein. The test is described as follows: BLI. This is another data set of the same source.

B1: CCL8 (ligand)
chain: QPDSVSIPITCCFNVINRKIPIQRLESYTRITNIQCPKEAVIFKTKRGKEVCADPKERWVRDSMKHLDQIFQNLKP
The term Kd denotes the constant that tells how readily two partners part at equilibrium. Low readings indicate tighter binding, high ones weaker binding. Consider B1, for which the Kd in test [1] was 142 nM and 84.9 nM; in test [2], 142 nM.
